According to PMC9871032 (2023):
Blank lines part the entries; values can stand above or below the molecule they belong to.

How the values were obtained:
[1] = molecular target: IL-2Rα (Homo sapiens) (UniProt P01589); conditions: cited from earlier work
[2] = molecular target: dimeric IL-2 receptor (Homo sapiens) (UniProt P14784); conditions: cited from earlier work
[3] = molecular target: His-tagged ectodomain of human IL-2Rα (human) (UniProt P01589); assay: BLI; His-tagged IL-2Rα immobilised by amine coupling on AR2G biosensors; Octet RED96, 25 °C, D-PBS with 0.2% BSA and 0.05% Tween 20; two-fold dilutions (1.5-100 nM) of IL-2 and L72-FSY; dissociation 300 s; global 1:1 fit
[4] = molecular target: extracellular domain of IL-2Rβ (UniProt P14784); assay: BLI; biosensors bearing the extracellular domain of IL-2Rβ; samples in a series of 3-fold dilutions
[5] = molecular target: L72-FSY-IL-2 (human, UniProt P60568 21-153, L72-FSY, fluorosulfate-L-tyrosine (FSY) at 72); assay: BLI

Chain of IL-2Rα (Homo sapiens) (P01589 22-240): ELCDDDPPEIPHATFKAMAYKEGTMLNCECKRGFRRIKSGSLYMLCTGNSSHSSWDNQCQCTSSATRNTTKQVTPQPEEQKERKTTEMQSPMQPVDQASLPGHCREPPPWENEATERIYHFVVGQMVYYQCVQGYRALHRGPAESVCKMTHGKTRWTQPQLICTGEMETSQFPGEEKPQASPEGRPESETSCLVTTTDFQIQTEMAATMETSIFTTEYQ

Molecule: IL-2 (from UniProt P60568)
- Kd [1]: 10 nM
- Kd [2]: 1 nM

B1: extracellular domain of the β subunit of IL-2R (receptor)
chain: AVNGTSQFTCFYNSRANISCVWSQDGALQDTSCQVHAWPDRRRWNQTCELLPVSQASWACNLILGAPDSQKLTTVDIVTLRVLCREGVRWRVMAIQDFKPFENLRLMAPISLQVVHVETHRCNISWEISQASHYFERHLEFEARTLSPGHTWEEAPLLTLKQKQEWICLETLTPDTQYEFQVRVKPLQGEFTTWSPWSQPLAFRTKPAALGKDT
- Kd [5]: 70 nM

Other lines, results leading:

- Kd [3]: 10.3 nM
Molecule: L72-FSY-IL-2 (human IL-2 with fluorosulfate-L-tyrosine at position 72) (from UniProt P60568 21-153) (ligand)

- Kd [4]: 743 nM
- Kd [3]: 45.1 nM
Molecule: N-terminally PEGylated L72-FSY-IL-2 (from UniProt P60568 21-153) (ligand)
